Results from PMC11179147 (Nature, 2023).
Positions count from the first letter of the chain named. Numbers in names are those of the source. Each block holds one binder with its values, some of them ahead of it.

Assays:
[1] = biological target: full-length WT METTL1, unlabeled (without WDR4) (human, UniProt Q9UBP6 1-276); assay: NMR titration
[2] = biological target: full-length R109A/K111A METTL1, unlabeled (human, UniProt Q9UBP6 1-276, R109A | K111A); assay: NMR titration

- binding result [1]: binds
- binding result [2]: binds
B1: METTL1 1-75 (N-terminal segment of METTL1), isotope-labelled (domain or fragment, human, UniProt Q9UBP6 1-75, looked up)
chain: MAAETRNVAGAEAPPPQKRYYRQRAHSNPMADHTLRYPVKPEEMDWSELYPEFFAPLTQNQSHDDPKDKKEKRAQ

- binding result [1]: binds
B2: S27D METTL1 1-75, isotope-labelled (domain or fragment, human, UniProt Q9UBP6 1-75, looked up)
chain: B1 chain with S27D
